As usually defined, the EC50 is the concentration at which the effect is half-maximal. Higher therefore signals a need for much substance.

The values below come from patent US11254745.

The target of assay [1] is extracellular domain of hCD4 fused with human Fc tag (hCD4-hFc) (human) (UniProt P01730). The assay is described as follows: ELISA on human CD4, OD450; fitted EC50 of the control in the table under the graph (unit from the graph's axis).
For assay [2] the target is unchanged. The assay is described as follows: ELISA on plate-coated CD4-hFc, OD450; fitted EC50 of the negative control in the table under the graph (unit from the graph's axis).

In assay [1], Isotype IgG1 (antibody) came in with an EC50 of 4.48 µg/mL.

Substance hIgG1 (antibody) gave an EC50 in assay [1] of 0.78 µg/mL.

mIgG1 (antibody) had an EC50 in assay [2] of 0.542 µg/mL.
